Assay [1] has as its target T1, NMDA receptor NR1 subunit (rat (endogenous in hippocampus), UniProt P35439 19-938).
T1 construct: NR1 subunit of the N-methyl-D-aspartate receptor, rat, endogenous in the hippocampus; source: endogenous, rat hippocampal tissue lysate (RIPA buffer)
Description: co-IP; rat hippocampal tissue lysed in RIPA buffer; equal amounts of total protein precipitated with the appropriate primary antibodies and protein G sepharose at 4 °C overnight; Western blot; normal, chronic epileptic, and control siRNA- or PDI siRNA-infused epileptic animals. To be noted: partners not purified. On the technique in general: A western blot detects proteins with antibodies after separation by electrophoresis.

In assay [2] the target is T2, NMDA receptor NR2A subunit (rat (endogenous in hippocampus), UniProt Q00959 23-1464).
T2 construct: NR2A subunit of the N-methyl-D-aspartate receptor, rat, endogenous in the hippocampus; source: endogenous, rat hippocampal tissue lysate (RIPA buffer)
The assay is described as above. To be noted: partners not purified.

T2 sequence (Q00959 23-1464): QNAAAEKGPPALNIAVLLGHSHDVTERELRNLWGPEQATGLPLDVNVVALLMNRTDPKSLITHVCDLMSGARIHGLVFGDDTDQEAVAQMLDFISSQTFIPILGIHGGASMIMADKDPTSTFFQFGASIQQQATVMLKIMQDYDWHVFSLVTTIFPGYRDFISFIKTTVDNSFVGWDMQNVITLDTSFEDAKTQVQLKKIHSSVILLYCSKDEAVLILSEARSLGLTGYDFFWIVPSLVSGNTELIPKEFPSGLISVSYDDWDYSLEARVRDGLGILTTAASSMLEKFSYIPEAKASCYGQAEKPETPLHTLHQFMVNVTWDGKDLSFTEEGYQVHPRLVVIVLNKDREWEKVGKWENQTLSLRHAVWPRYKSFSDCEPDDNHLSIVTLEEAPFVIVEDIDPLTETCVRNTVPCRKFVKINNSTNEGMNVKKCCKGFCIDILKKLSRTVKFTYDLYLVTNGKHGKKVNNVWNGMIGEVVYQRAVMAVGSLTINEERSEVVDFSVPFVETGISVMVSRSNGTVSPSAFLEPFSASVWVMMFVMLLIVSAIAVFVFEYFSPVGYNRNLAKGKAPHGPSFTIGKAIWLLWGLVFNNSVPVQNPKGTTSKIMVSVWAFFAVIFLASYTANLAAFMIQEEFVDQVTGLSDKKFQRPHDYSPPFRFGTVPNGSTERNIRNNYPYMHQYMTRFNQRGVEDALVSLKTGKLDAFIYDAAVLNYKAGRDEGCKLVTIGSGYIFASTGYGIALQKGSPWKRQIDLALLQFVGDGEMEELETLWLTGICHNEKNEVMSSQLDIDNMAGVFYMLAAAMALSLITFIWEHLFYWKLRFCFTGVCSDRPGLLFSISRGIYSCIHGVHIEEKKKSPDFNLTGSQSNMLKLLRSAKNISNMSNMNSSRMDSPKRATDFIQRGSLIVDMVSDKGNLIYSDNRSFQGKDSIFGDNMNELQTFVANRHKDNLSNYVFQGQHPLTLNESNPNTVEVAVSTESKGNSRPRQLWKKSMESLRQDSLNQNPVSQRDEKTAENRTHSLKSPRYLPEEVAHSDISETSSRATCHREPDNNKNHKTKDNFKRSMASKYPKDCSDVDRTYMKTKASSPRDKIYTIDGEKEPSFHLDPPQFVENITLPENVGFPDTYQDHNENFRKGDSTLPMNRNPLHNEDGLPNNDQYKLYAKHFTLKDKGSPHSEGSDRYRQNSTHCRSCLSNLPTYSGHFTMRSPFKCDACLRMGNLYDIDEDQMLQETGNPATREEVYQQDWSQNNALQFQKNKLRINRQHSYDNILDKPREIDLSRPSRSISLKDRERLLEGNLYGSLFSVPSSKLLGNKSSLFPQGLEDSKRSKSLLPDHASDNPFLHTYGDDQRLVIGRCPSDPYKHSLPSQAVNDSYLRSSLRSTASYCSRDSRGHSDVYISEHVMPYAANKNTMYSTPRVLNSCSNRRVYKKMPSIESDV

B1: Protein disulfide isomerase (enzyme, rat (endogenous in hippocampus), UniProt P04785 20-509, looked up)
chain: DALEEEDNVLVLKKSNFAEALAAHNYLLVEFYAPWCGHCKALAPEYAKAAAKLKAEGSEIRLAKVDATEESDLAQQYGVRGYPTIKFFKNGDTASPKEYTAGREADDIVNWLKKRTGPAATTLSDTAAAESLVDSSEVTVIGFFKDAGSDSAKQFLLAAEAVDDIPFGITSNSDVFSKYQLDKDGVVLFKKFDEGRNNFEGEITKEKLLDFIKHNQLPLVIEFTEQTAPKIFGGEIKTHILLFLPKSVSDYDGKLSNFKKAAEGFKGKILFIFIDSDHTDNQRILEFFGLKKEECPAVRLITLEEEMTKYKPESDELTAEKITQFCHHFLEGKIKPHLMSQELPEDWDKQPVKVLVGKNFEEVAFDEKKNVFVEFYAPWCGHCKQLAPIWDKLGETYKDHENIVIAKMDSTANEVEAVKVHSFPTLKFFPASADRTVIDYNGERTLDGFKKFLESGGQDGAGDNDDLDLEEALEPDMEEDDDQKAVKDEL
notes: Protein disulfide isomerase (PDI), rat, endogenous in the hippocampus of Sprague-Dawley rats; also called PDI; source: endogenous, rat hippocampal tissue lysate (RIPA buffer)
Consider B1, for which the “fold of co-precipitation in epileptic against normal animals” value in assay [1] and in assay [2] was approximately 2.4 fold in each case.

The record behind these values is PMC5309844, “PDI regulates seizure activity via NMDA receptor redox in rats” (Scientific Reports, 2017).
